The source of these data is PMC11446229, “CyaY and TusA regulate ISC- and SUF-mediated L-cysteine desulfurase activity†” (RSC Chemical Biology, 2024).

First the molecules themselves.
B3: SufS, cysteine desulfurase of the SUF system (enzyme, E. coli, UniProt P77444 1-406, looked up)
chain: MIFSVDKVRADFPVLSREVNGLPLAYLDSAASAQKPSQVIDAEAEFYRHGYAAVHRGIHTLSAQATEKMENVRKRASLFINARSAEELVFVRGTTEGINLVANSWGNSNVRAGDNIIISQMEHHANIVPWQMLCARVGAELRVIPLNPDGTLQLETLPTLFDEKTRLLAITHVSNVLGTENPLAEMITLAHQHGAKVLVDGAQAVMHHPVDVQALDCDFYVFSGHKLYGPTGIGILYVKEALLQEMPPWEGGGSMIATVSLSEGTTWTKAPWRFEAGTPNTGGIIGLGAALEYVSALGLNNIAEYEQNLMHYALSQLESVPDLTLYGPQNRLGVIAFNLGKHHAYDVGSFLDNYGIAVRTGHHCAMPLMAYYNVPAMCRASLAMYNTHEEVDRLVTGLQRIHRLLG
notes: SufS, L-cysteine desulfurase of E. coli; Seen by native MS as a dimer with associated PLP cofactors (89 956 Da; predicted 89 892 Da + (S0)2); Surmise: the predicted mass is larger than two natural chains plus two PLP, so a few residues may be left on each chain after thrombin cleavage; also called (SufS)2; dimeric SufS; source: E. coli BL21 DE3, plasmid pSL213, purified, (His)6-tag cleaved with …

In series [1] the target is B3. The series is described as follows: native MS; SufS (~8 uM, ~4 uM dimer) titrated with SufE; 250 mM ammonium acetate pH 8; relative intensities fitted to a sequential binding model (Dynafit). The settings on record: both partners purified.
The target in series [2] is T1, SufSE complex (SufS dimer with bound SufE), formed before CyaY was added (E. coli, UniProt P77444 1-406; P76194 1-138).
T1 construct: SufS, L-cysteine desulfurase of E. coli, as the chain of m4; SufE of E. coli, as the chain of m5; A mixture of complexes: mainly one or two SufE on each SufS dimer, with some (SufE)3(SufS)2 before CyaY was added; In the activity assay 30 uM SufS plus 90 uM SufE; also called SufE–SufS complexes; SufS/SufE; source: mixed from SufS and SufE, each purified from E. coli BL21 DE3; copies: 2 +
T1 sequence (looked up) 1: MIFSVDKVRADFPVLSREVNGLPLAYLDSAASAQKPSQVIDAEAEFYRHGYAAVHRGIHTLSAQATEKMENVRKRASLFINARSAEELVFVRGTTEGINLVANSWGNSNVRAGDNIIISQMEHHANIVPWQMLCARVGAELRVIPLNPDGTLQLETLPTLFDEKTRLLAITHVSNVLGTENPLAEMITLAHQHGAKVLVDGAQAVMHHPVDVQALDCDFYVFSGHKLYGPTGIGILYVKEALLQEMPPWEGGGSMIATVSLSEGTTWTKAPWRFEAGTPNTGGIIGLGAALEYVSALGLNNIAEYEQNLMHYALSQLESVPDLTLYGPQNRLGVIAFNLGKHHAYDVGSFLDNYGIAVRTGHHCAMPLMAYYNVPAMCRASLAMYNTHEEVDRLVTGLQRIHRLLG
T1 sequence (looked up) 2: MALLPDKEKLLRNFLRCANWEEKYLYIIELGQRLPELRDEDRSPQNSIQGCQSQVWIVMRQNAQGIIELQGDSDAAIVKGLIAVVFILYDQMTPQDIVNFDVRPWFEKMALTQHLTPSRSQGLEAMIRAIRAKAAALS
The series is described as follows: native MS; pre-formed SufSE complexes treated with a 4-fold excess of CyaY and titrated with CyaY up to about 35 uM; 250 mM ammonium acetate pH 8; only the first part of the titration measured, Kd an approximation. Particulars: both partners purified.

Series [3] has as its target T2, IscS, cysteine desulfurase of the ISC system (E. coli, UniProt P0A6B7 1-404).
T2 construct: IscS, L-cysteine desulfurase of E. coli; Seen by native MS as a dimer with associated PLP cofactors (90 662 Da; predicted 90 642 Da + Na); No tag is named for this construct; Surmise: the predicted mass fits two untagged whole chains plus two PLP; also called (IscS)2; dimeric IscS; source: E. coli BL21 DE3, plasmid pSL209, purified (previously published procedures)
Description: native MS; IscS (8 uM, 4 uM dimer) pre-treated with 0.5 equivalents of TusA (4 uM), then titrated with CyaY; 250 mM ammonium acetate pH 8; relative intensities fitted to a simple competition binding model (Dynafit). Particulars: both partners purified.

Series [4] deals with the molecule itself. The series is described as follows: native MS; desulfurase alone, ~8 uM (~4 uM dimer), 250 mM ammonium acetate pH 8.0, deconvoluted spectrum.

B1: SufE (natural protein, E. coli, UniProt P76194 1-138, looked up)
chain: MALLPDKEKLLRNFLRCANWEEKYLYIIELGQRLPELRDEDRSPQNSIQGCQSQVWIVMRQNAQGIIELQGDSDAAIVKGLIAVVFILYDQMTPQDIVNFDVRPWFEKMALTQHLTPSRSQGLEAMIRAIRAKAAALS
notes: SufE, sulfur acceptor of SufS, E. coli; Tag cleavage is told only of SufS and CyaY; Surmise: the printed mass interval of ~16.7 kDa for each SufE is larger than the natural chain, so the tag may have been kept; also called SufE-(His)6; source: E. coli BL21 DE3, plasmid pET15b, purified (previously published procedures)
Turning to B1, in series [1], the “Kd of the first and second SufE on the SufS dimer (high affinity site)” value was around 8 µM; the “Kd of the third and fourth SufE on the SufS dimer (low affinity site)” value was around 71 µM; the stoichiometry N (commonly a count of units in the complex or per binding partner) is at most 4 per SufS dimer.

B2: CyaY, the frataxin homolog of Escherichia coli (natural protein, E. coli, UniProt P27838 1-106, looked up)
chain: MNDSEFHRLADQLWLTIEERLDDWDGDSDIDCEINGGVLTITFENGSKIIINRQEPLHQVWLATKQGGYHFDLKGDEWICDRSGETFWDLLEQAATQQAGETVSFR
notes: CyaY, frataxin homolog of E. coli; Two plasmids are named (pET15b or pMB10); also called CyaY-(His)6; source: E. coli BL21 DE3, plasmid pET15b or pMB10, purified, (His)6-tag cleaved with thrombin
As to B2, the Kd (commonly the free concentration of one partner at which half of the binding sites on the other are occupied at equilibrium, for simple one-to-one binding) in series [2] was around 70 µM. Further, in series [3], the Kd is around 26 µM and the “stoichiometry N” value was at most 2 per IscS dimer.
As for B3, the “stoichiometry N” value in series [4] was found to be 2.
